Measurements reported in the supplement of paper PMC11811203.

B1: THAP1; numbered along this chain (parent)
chain: MVQSCSAYGCKNRYDKDKPVSFHKFPLTRPSLCKEWEAAVRRKNFKPTKYSSICSEHFTPDCFKRECNNKLLKENAVPTIFLCTEPHDKKEDLLEPQEQLPPPPLPPPVSQVDAAIGLLMPPLQTPVNLSVFCDHNYTVEDTMHQRKRIHQLEQQVEKLRKKLKTAQQRCRRQERQLEKLKEVVHFQKEKDDVSERGYVILPNDYFEIVEVPA

Variants of: B1
Experiment: THAP1 transcriptional activity (GFP+/GFP- enrichment relative to wild-type constructs) (ratio to WT); higher = more THAP1 activity (PSMB5 reporter activation)
Conditions: with PSMB5 promoter-GFP reporter
How it was run: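 Variants were counted by Illumina sequencing of genomic DNA amplicons from BFP+ cells sorted into GFP-bright and GFP-dim bins five days after lentiviral transduction, in duplicate at MOI ~0.3. The library changed each of residues 2–213 of human THAP1 to all 20 amino acids and was introduced into THAP1-knockout HEK-293T cells with mClover3 knocked in at endogenous PSMB5. Activity equals the replicate-mean bright/dim read fold change over the mean of wild-type synonymous constructs.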

| Variant | THAP1 transcriptional activity |
| --- | --- |
| MVQSCSAYGCKNRYDKDKPVSFHKFPLTRPSLCKEWEAAVRRKNFKPTKYSSICSEHFTPDCFKRECNNKLLKENAVPTIFLCTEPHDKKEDLLEPQEQLPPPPLPPPVSQVDAAIGLLMPPLQTPVNLSVFCDHNYTVEDTMHQRKRIHQLEQQVEKLRKKLKTAQQRCRRQERQLEKLKEVVHFQKEKDIVSERGYVILPNDYFEIVEVPA [D192I] | 0.817 |
| MVQSCCAYGCKNRYDKDKPVSFHKFPLTRPSLCKEWEAAVRRKNFKPTKYSSICSEHFTPDCFKRECNNKLLKENAVPTIFLCTEPHDKKEDLLEPQEQLPPPPLPPPVSQVDAAIGLLMPPLQTPVNLSVFCDHNYTVEDTMHQRKRIHQLEQQVEKLRKKLKTAQQRCRRQERQLEKLKEVVHFQKEKDDVSERGYVILPNDYFEIVEVPA [S6C] | 0.562 |
| MVQSCSAYGCKNRYDKDKPVSFHKFPLTRPSLCKEWEAAVRRKNFKPTKYSSICSEHFTPDCFKRECNNKLLKENAVPTIFLCTEPHDKKEDLLEPQEQLPPPPLPPPVSQVDAAIGLLMPPLQTPVNLSVFCDHNYTVEDTMHQRKRIHQLEIQVEKLRKKLKTAQQRCRRQERQLEKLKEVVHFQKEKDDVSERGYVILPNDYFEIVEVPA [Q154I] | 0.779 |
| MVQSCSAYGCKNRYDKDKPVSFHKFPLTRPSLCKEWEAAKRRKNFKPTKYSSICSEHFTPDCFKRECNNKLLKENAVPTIFLCTEPHDKKEDLLEPQEQLPPPPLPPPVSQVDAAIGLLMPPLQTPVNLSVFCDHNYTVEDTMHQRKRIHQLEQQVEKLRKKLKTAQQRCRRQERQLEKLKEVVHFQKEKDDVSERGYVILPNDYFEIVEVPA [V40K] | 0.127 |
| MVQSCSAYGCKNRYDKDKPVSFHKFPLTRPSLCKEWEAAVRRKNFKPTKYSSICSEHFTPDCFKRECNNKLLKENAVPTIFLCTEPHDKKEDLLEPQEQLPPPPLPPPVSQVDAAIGLLMPPLQTPVNLSVFCDHNYTVEDKMHQRKRIHQLEQQVEKLRKKLKTAQQRCRRQERQLEKLKEVVHFQKEKDDVSERGYVILPNDYFEIVEVPA [T142K] | 0.964 |
| MVQSCSAYGCKNRYDKDKPVSFHKFPLTRPSLCKEWEAAVRRKNFKPDKYSSICSEHFTPDCFKRECNNKLLKENAVPTIFLCTEPHDKKEDLLEPQEQLPPPPLPPPVSQVDAAIGLLMPPLQTPVNLSVFCDHNYTVEDTMHQRKRIHQLEQQVEKLRKKLKTAQQRCRRQERQLEKLKEVVHFQKEKDDVSERGYVILPNDYFEIVEVPA [T48D] | 0.113 |
| MVQSCSAYGCKNRYDKDKPVSFHKFPLTRPSLCKEWEAAVRRKNFKPTKYSSICSEHFTPDCFKRECNNKLLKENAVPTIFLCTEPHDKKEDLLEPQEQLPPPPLPPPVSQVDAAIGLLMPPLQTPVNLSVFCDHNYTLEDTMHQRKRIHQLEQQVEKLRKKLKTAQQRCRRQERQLEKLKEVVHFQKEKDDVSERGYVILPNDYFEIVEVPA [V139L] | 1.18 |
| MVQSCSAYGCKNRYDKDKPVSFHKFPLTRPSLCKEWEFAVRRKNFKPTKYSSICSEHFTPDCFKRECNNKLLKENAVPTIFLCTEPHDKKEDLLEPQEQLPPPPLPPPVSQVDAAIGLLMPPLQTPVNLSVFCDHNYTVEDTMHQRKRIHQLEQQVEKLRKKLKTAQQRCRRQERQLEKLKEVVHFQKEKDDVSERGYVILPNDYFEIVEVPA [A38F] | 0.511 |
| MVQSCSAYGCKNRYDKDKPVSFHKFPLTRPSLCKEWEAAVRRKNFKPTKYSSICSEHFTPDCFKRECNNKLLKENAVPTIFLCTEPHDKKEDLLEPLEQLPPPPLPPPVSQVDAAIGLLMPPLQTPVNLSVFCDHNYTVEDTMHQRKRIHQLEQQVEKLRKKLKTAQQRCRRQERQLEKLKEVVHFQKEKDDVSERGYVILPNDYFEIVEVPA [Q97L] | 1.55 |
| MVQSCSAYGCKNRYDKDKPVSFHKFPLTRPSLNKEWEAAVRRKNFKPTKYSSICSEHFTPDCFKRECNNKLLKENAVPTIFLCTEPHDKKEDLLEPQEQLPPPPLPPPVSQVDAAIGLLMPPLQTPVNLSVFCDHNYTVEDTMHQRKRIHQLEQQVEKLRKKLKTAQQRCRRQERQLEKLKEVVHFQKEKDDVSERGYVILPNDYFEIVEVPA [C33N] | 0.177 |
| MVQSCSAYGCKNRYDKDKPVSFHKFPLTRPSLCKEWEAAVRRKNFKPTKYSSICSEHFTPDCFKRECNNKLLKENAVPTIFYCTEPHDKKEDLLEPQEQLPPPPLPPPVSQVDAAIGLLMPPLQTPVNLSVFCDHNYTVEDTMHQRKRIHQLEQQVEKLRKKLKTAQQRCRRQERQLEKLKEVVHFQKEKDDVSERGYVILPNDYFEIVEVPA [L82Y] | 1.46 |
| MVQSCSAYGCKNRYDKDKPVSFHKFPLTRPSLCKEWEAAVRRKNFKPTKYSSICSEHFTPDCFKRECNNKLLKENAVPTIFLCTEPHDKKEDLLEPQEQLPPPPLPPPVSQVDAAIGLLMPPLQTPVNLSVFCDHNYTVEDTMHQRKRIHQLEQQVEKLRKKLKTAQQRCRRQERQLEKLKEVVHFQKEKDDVSERGYVILPNDYFEIVEVPW [A213W] | 0.538 |
| MVQSCSAYGCKNRYDKDKPVSFHKFPLTRPSLCKEWEARVRRKNFKPTKYSSICSEHFTPDCFKRECNNKLLKENAVPTIFLCTEPHDKKEDLLEPQEQLPPPPLPPPVSQVDAAIGLLMPPLQTPVNLSVFCDHNYTVEDTMHQRKRIHQLEQQVEKLRKKLKTAQQRCRRQERQLEKLKEVVHFQKEKDDVSERGYVILPNDYFEIVEVPA [A39R] | 0.673 |
| MVQSCSAYGCKNRYDKDKPVSFHKFPLTRPSLCKEWEAAVRRKNFKPTKYSSICSEHFTPDCFKRECNNKLLKENAVPTIFLCTEPHDKKEDLLEPQEQLPPPPLPPPVSQVDAAIGLLMPPLQTPVNLSVFCDHNYTVEDTMHQRKRIHQLEQQVEKLRKKLKTAQQRCRRQERQLEKLKGVVHFQKEKDDVSERGYVILPNDYFEIVEVPA [E182G] | 0.726 |
| MVQSCSAYGCKNRYDKDKPVSFHKFPLTRPSLCKEWEAAVRRKNFKPTKYSSICSEHFTPDCFKRECNNKLLKENAVPTIFLCTEPHDKKEDLLEPQEQLPPPPLPPPVSQVDAAIGLLMPPLQTPVNLSVFCDHNYTVEDTMHQRKRIHQLEQQVEKLRKKLKTAQQRCRRQERQLEKLKEVVHFQKEKDDVSERGYVILPNDYFIIVEVPA [E207I] | 0.667 |
| MVQSCSAYGCKNRYDKDKPVSFHKFPLTRPSLCKEWEAAVRRKNFKPTKYSSICSEHFTPDCFKRECNNKLLKENAVPTIFLCTEPHDKKEDLLEPQEQLPPPPLPPPVSQVDAAIGLLMPPLQTPVNLSVFCDHNYTVEDTMHQRKRIHQLEQQVEKLRKKLKTAQQRCRRQERQLEKLKEVVHFQKEKDDVSERGYVILPNDYFFIVEVPA [E207F] | 0.867 |
| MVQSCSAYGCKNRYDKDKPVSFHKFPLTRPSLCKEWEAAVRRKNFKPTKYSSICSEHFTPDCFKRECNNKLLKENAVPTIFLCTEPHDKKEDLLEPQEQLPPPPLPPPVSQVDAAIGLLMPPLQTPVNLSVFCDHNYTVEDTMHQRKRIHQLEQQVEKLRKKLKTAQQRCRRQERQLEKLKEVVHFQKEKDDVVERGYVILPNDYFEIVEVPA [S194V] | 1.06 |
| MVQSCSAYGCKNRYDKDKPVSFHKFPLTRPSLCKEWEAAVRRKNFKPTKYSSICSEHFTPDCFKRECNNKLLKENAVPTIFLCTEPHDKKEDLLEPQEQLPPPPLPPPVSQVDAAIGLLMPPLQTPVNLSVFCTHNYTVEDTMHQRKRIHQLEQQVEKLRKKLKTAQQRCRRQERQLEKLKEVVHFQKEKDDVSERGYVILPNDYFEIVEVPA [D134T] | 0.354 |
| MVQSCSAYGCKNRYDKDKPVSFHKFPLTRPSLCKEWEAAVRRKNFKPTKYSSIHSEHFTPDCFKRECNNKLLKENAVPTIFLCTEPHDKKEDLLEPQEQLPPPPLPPPVSQVDAAIGLLMPPLQTPVNLSVFCDHNYTVEDTMHQRKRIHQLEQQVEKLRKKLKTAQQRCRRQERQLEKLKEVVHFQKEKDDVSERGYVILPNDYFEIVEVPA [C54H] | 0.0812 |
| MVQSCSAYGCKNRYDKDKPVSFHKFPLTRPSLCKEWEAAVRRKNFKPTKYSSICSEHFTPDCFKRECNNKLQKENAVPTIFLCTEPHDKKEDLLEPQEQLPPPPLPPPVSQVDAAIGLLMPPLQTPVNLSVFCDHNYTVEDTMHQRKRIHQLEQQVEKLRKKLKTAQQRCRRQERQLEKLKEVVHFQKEKDDVSERGYVILPNDYFEIVEVPA [L72Q] | 0.163 |
| MVQSCSAYGCKNRYDKDKPVSFHKFPLTRPSLCKEWEAAVRRKNFKPTKYSSICSEHFTPDCFKRECNNKLLKENAVPTICLCTEPHDKKEDLLEPQEQLPPPPLPPPVSQVDAAIGLLMPPLQTPVNLSVFCDHNYTVEDTMHQRKRIHQLEQQVEKLRKKLKTAQQRCRRQERQLEKLKEVVHFQKEKDDVSERGYVILPNDYFEIVEVPA [F81C] | 0.223 |
| MVQSCSAYGCKNRYDKDKPVSFHKFPLTRPSLCKEWEAAVRRKNFKPTKYSSICSEHFTPDCFKRECNNKLLKENAVPTIFLCTEPHDKKEELLEPQEQLPPPPLPPPVSQVDAAIGLLMPPLQTPVNLSVFCDHNYTVEDTMHQRKRIHQLEQQVEKLRKKLKTAQQRCRRQERQLEKLKEVVHFQKEKDDVSERGYVILPNDYFEIVEVPA [D92E] | 1.44 |
| MVQSCSAYGCKNRYDKDKPVSFHKFPLTRPSLCKEWEAAVRRKNFKPTKYSSICSEHFTPDCFKRECNNKLLKENAVPTIFLCTEPHDKKEPLLEPQEQLPPPPLPPPVSQVDAAIGLLMPPLQTPVNLSVFCDHNYTVEDTMHQRKRIHQLEQQVEKLRKKLKTAQQRCRRQERQLEKLKEVVHFQKEKDDVSERGYVILPNDYFEIVEVPA [D92P] | 1.64 |
| MVQSCSAYGCKNRYDKDKPVSFHKFPLTRCSLCKEWEAAVRRKNFKPTKYSSICSEHFTPDCFKRECNNKLLKENAVPTIFLCTEPHDKKEDLLEPQEQLPPPPLPPPVSQVDAAIGLLMPPLQTPVNLSVFCDHNYTVEDTMHQRKRIHQLEQQVEKLRKKLKTAQQRCRRQERQLEKLKEVVHFQKEKDDVSERGYVILPNDYFEIVEVPA [P30C] | 0.123 |
| MVQSCSAYGCKNRYDKDKPVSFHKFPLTRPSLCKEWEAAVRRKNFKPTKYSSICSEHFTPDCFKRECNNKLLKENAVPTIFLCTEPHDKKEDLLEPQEQLPPPPLPPPVSQVDAAINLLMPPLQTPVNLSVFCDHNYTVEDTMHQRKRIHQLEQQVEKLRKKLKTAQQRCRRQERQLEKLKEVVHFQKEKDDVSERGYVILPNDYFEIVEVPA [G117N] | 0.857 |
| MVQSCSAYGCKNRYDKDKPVSFHKFPLTRPSLCKEWEAAVRRKNFKPTKYSSICSEHFTPDCFKRECNNKLLKENAVPTIFLCTEPHDKKEDLLEPQEQLPPPPLPPPVSQVDAAIGLLMPPLQTPVNLSVFCDHNYTVEDTMHQRKRIHQLEQQVEKLRKKFKTAQQRCRRQERQLEKLKEVVHFQKEKDDVSERGYVILPNDYFEIVEVPA [L163F] | 0.23 |
| MVQSCSAYGCKNRYDKDKPVSFHKFPLTRPSLCKEWEAAVRRKNFKPTKYSSICSEHFTPDCFKRECNNKLLKENAVPTIFLCTEPHDKKEDLLEPQEQLPPPPLPPPVSQVDAAIGLLMPPLQTPVNLSVFCDHNYTVEDTMHQRKRIHQLEQQVEKLRKKLKTAQQRCRRQERQLEKLKEVVHQQKEKDDVSERGYVILPNDYFEIVEVPA [F186Q] | 2.25 |
| MVQSCSAYGCKNRYDKDKPVSFHKFPLTRPSLCKEWEAAVRRKNFKPTKYSSICSEHFTPDCFKRECNNKLLKENAVPTIFLCTEPHDKKEDLLEPQEQLPPPPLPPPVSQVDAAIGILMPPLQTPVNLSVFCDHNYTVEDTMHQRKRIHQLEQQVEKLRKKLKTAQQRCRRQERQLEKLKEVVHFQKEKDDVSERGYVILPNDYFEIVEVPA [L118I] | 1.1 |
